The values below come from the Human Domainome abundance scans (Beltran et al. 2025).

± gives the uncertainty stated by the source.

B1: SH3 and PX domain-containing protein 2B, residues 155 to 209; numbered along this chain, A1X283 (parent)
chain: EQYVVVANYQKQESSEISLSVGQVVDIIEKNESGWWFVSTAEEQGWVPATCLEGQ

The variants in this data set derive from B1. The data set can be described thus: abundance fitness (aPCA) (normalised: wild type 0, dead -1); higher = more abundant; growth selection in yeast, the domain comes from the species named. The note with it: Homo sapiens.
Turning to EQYVVVANYQSQESSEISLSVGQVVDIIEKNESGWWFVSTAEEQGWVPATCLEGQ [K11S], the abundance fitness was -0.072 ± 0.087. Then EQYVVVANYQHQESSEISLSVGQVVDIIEKNESGWWFVSTAEEQGWVPATCLEGQ [K11H], with 0.064 ± 0.14; and EQYVVVANYQYQESSEISLSVGQVVDIIEKNESGWWFVSTAEEQGWVPATCLEGQ [K11Y], with -0.465 ± 0.14. Then EQYVVVANYQLQESSEISLSVGQVVDIIEKNESGWWFVSTAEEQGWVPATCLEGQ [K11L], with -0.433 ± 0.11; and EQYVVVANYQTQESSEISLSVGQVVDIIEKNESGWWFVSTAEEQGWVPATCLEGQ [K11T], with -0.357 ± 0.14. With EQYVVVANYQMQESSEISLSVGQVVDIIEKNESGWWFVSTAEEQGWVPATCLEGQ [K11M], the abundance fitness is -0.115 ± 0.18.

Turning to EQYVVVANYQEQESSEISLSVGQVVDIIEKNESGWWFVSTAEEQGWVPATCLEGQ [K11E], the abundance fitness is -0.183 ± 0.11.

Take EQYVVVANYQQQESSEISLSVGQVVDIIEKNESGWWFVSTAEEQGWVPATCLEGQ [K11Q]: the abundance fitness was -0.132 ± 0.13. Then EQYVVVANYQWQESSEISLSVGQVVDIIEKNESGWWFVSTAEEQGWVPATCLEGQ [K11W], with -0.496 ± 0.12; and EQYVVVANYQNQESSEISLSVGQVVDIIEKNESGWWFVSTAEEQGWVPATCLEGQ [K11N], with -0.33 ± 0.16. As for EQYVVVANYQPQESSEISLSVGQVVDIIEKNESGWWFVSTAEEQGWVPATCLEGQ [K11P], the abundance fitness was -0.034 ± 0.1.

Regarding EQYVVVANYQRQESSEISLSVGQVVDIIEKNESGWWFVSTAEEQGWVPATCLEGQ [K11R], the abundance fitness was 0.069 ± 0.065. Then EQYVVVANYQAQESSEISLSVGQVVDIIEKNESGWWFVSTAEEQGWVPATCLEGQ [K11A], with -0.106 ± 0.081; and EQYVVVANYQFQESSEISLSVGQVVDIIEKNESGWWFVSTAEEQGWVPATCLEGQ [K11F], with -0.689 ± 0.19. Then EQYVVVANYQGQESSEISLSVGQVVDIIEKNESGWWFVSTAEEQGWVPATCLEGQ [K11G], with -0.015 ± 0.054; and EQYVVVANYQKQNSSEISLSVGQVVDIIEKNESGWWFVSTAEEQGWVPATCLEGQ [E13N], with -0.046 ± 0.16. As to EQYVVVANYQKQDSSEISLSVGQVVDIIEKNESGWWFVSTAEEQGWVPATCLEGQ [E13D], the abundance fitness is -0.111 ± 0.14. Then EQYVVVANYQKQRSSEISLSVGQVVDIIEKNESGWWFVSTAEEQGWVPATCLEGQ [E13R], with -0.182 ± 0.081; and EQYVVVANYQKQASSEISLSVGQVVDIIEKNESGWWFVSTAEEQGWVPATCLEGQ [E13A], with -0.359 ± 0.1; and EQYVVVANYQKQSSSEISLSVGQVVDIIEKNESGWWFVSTAEEQGWVPATCLEGQ [E13S], with -0.158 ± 0.078. Next, EQYVVVANYQKQWSSEISLSVGQVVDIIEKNESGWWFVSTAEEQGWVPATCLEGQ [E13W]: -0.467 ± 0.17; EQYVVVANYQKQPSSEISLSVGQVVDIIEKNESGWWFVSTAEEQGWVPATCLEGQ [E13P]: -0.598 ± 0.12; EQYVVVANYQKQCSSEISLSVGQVVDIIEKNESGWWFVSTAEEQGWVPATCLEGQ [E13C]: -0.19 ± 0.1.

For the variant EQYVVVANYQKQKSSEISLSVGQVVDIIEKNESGWWFVSTAEEQGWVPATCLEGQ [E13K], the abundance fitness is -0.015 ± 0.15. Next, EQYVVVANYQKQYSSEISLSVGQVVDIIEKNESGWWFVSTAEEQGWVPATCLEGQ [E13Y]: -0.248 ± 0.11; EQYVVVANYQKQHSSEISLSVGQVVDIIEKNESGWWFVSTAEEQGWVPATCLEGQ [E13H]: -0.154 ± 0.11. Consider EQYVVVANYQKQGSSEISLSVGQVVDIIEKNESGWWFVSTAEEQGWVPATCLEGQ [E13G], for which the abundance fitness was -0.074 ± 0.065. Next, EQYVVVANYQKQMSSEISLSVGQVVDIIEKNESGWWFVSTAEEQGWVPATCLEGQ [E13M]: -0.025 ± 0.12; EQYVVVANYQKQVSSEISLSVGQVVDIIEKNESGWWFVSTAEEQGWVPATCLEGQ [E13V]: -0.065 ± 0.071.

Take EQYVVVANYQKQISSEISLSVGQVVDIIEKNESGWWFVSTAEEQGWVPATCLEGQ [E13I]: the abundance fitness was -0.037 ± 0.12. As for EQYVVVANYQKQLSSEISLSVGQVVDIIEKNESGWWFVSTAEEQGWVPATCLEGQ [E13L], the abundance fitness is -0.178 ± 0.071. Then EQYVVVANYQKQFSSEISLSVGQVVDIIEKNESGWWFVSTAEEQGWVPATCLEGQ [E13F], with -0.229 ± 0.13.

With EQYVVVANYQKQTSSEISLSVGQVVDIIEKNESGWWFVSTAEEQGWVPATCLEGQ [E13T], the abundance fitness is -0.104 ± 0.1. Then EQYVVVANYQKIESSEISLSVGQVVDIIEKNESGWWFVSTAEEQGWVPATCLEGQ [Q12I], with -0.19 ± 0.14; and EQYVVVANYQKGESSEISLSVGQVVDIIEKNESGWWFVSTAEEQGWVPATCLEGQ [Q12G], with -0.14 ± 0.074. Next, EQYVVVANYQKDESSEISLSVGQVVDIIEKNESGWWFVSTAEEQGWVPATCLEGQ [Q12D]: -0.241 ± 0.15.

For EQYVVVANYQKYESSEISLSVGQVVDIIEKNESGWWFVSTAEEQGWVPATCLEGQ [Q12Y], the abundance fitness was -0.313 ± 0.3. For EQYVVVANYQKVESSEISLSVGQVVDIIEKNESGWWFVSTAEEQGWVPATCLEGQ [Q12V], the abundance fitness was 0.02 ± 0.08. EQYVVVANYQKEESSEISLSVGQVVDIIEKNESGWWFVSTAEEQGWVPATCLEGQ [Q12E]: the abundance fitness is -0.195 ± 0.14.

Consider EQYVVVANYQKSESSEISLSVGQVVDIIEKNESGWWFVSTAEEQGWVPATCLEGQ [Q12S], for which the abundance fitness is -0.038 ± 0.073. Next, EQYVVVANYQKPESSEISLSVGQVVDIIEKNESGWWFVSTAEEQGWVPATCLEGQ [Q12P]: -0.276 ± 0.087. Then EQYVVVANYQKFESSEISLSVGQVVDIIEKNESGWWFVSTAEEQGWVPATCLEGQ [Q12F], with 0.001 ± 0.16; and EQYVVVANYQKNESSEISLSVGQVVDIIEKNESGWWFVSTAEEQGWVPATCLEGQ [Q12N], with -0.183 ± 0.14; and EQYVVVANYQKRESSEISLSVGQVVDIIEKNESGWWFVSTAEEQGWVPATCLEGQ [Q12R], with -0.066 ± 0.068. Consider EQYVVVANYQKHESSEISLSVGQVVDIIEKNESGWWFVSTAEEQGWVPATCLEGQ [Q12H], for which the abundance fitness was -0.114 ± 0.19.

With EQYVVVANYQKKESSEISLSVGQVVDIIEKNESGWWFVSTAEEQGWVPATCLEGQ [Q12K], the abundance fitness came out at 0.013 ± 0.094. Next, EQYVVVANYQKMESSEISLSVGQVVDIIEKNESGWWFVSTAEEQGWVPATCLEGQ [Q12M]: -0.182 ± 0.14. Next, EQYVVVANYQKCESSEISLSVGQVVDIIEKNESGWWFVSTAEEQGWVPATCLEGQ [Q12C]: -0.228 ± 0.1.
